Values quoted from earlier work, collected in PMC5135002.

Molecular target: CYLD USP (Homo sapiens) (UniProt Q9NQC7)
UniProt Q9NQC7, sequence (Q9NQC7 589-953): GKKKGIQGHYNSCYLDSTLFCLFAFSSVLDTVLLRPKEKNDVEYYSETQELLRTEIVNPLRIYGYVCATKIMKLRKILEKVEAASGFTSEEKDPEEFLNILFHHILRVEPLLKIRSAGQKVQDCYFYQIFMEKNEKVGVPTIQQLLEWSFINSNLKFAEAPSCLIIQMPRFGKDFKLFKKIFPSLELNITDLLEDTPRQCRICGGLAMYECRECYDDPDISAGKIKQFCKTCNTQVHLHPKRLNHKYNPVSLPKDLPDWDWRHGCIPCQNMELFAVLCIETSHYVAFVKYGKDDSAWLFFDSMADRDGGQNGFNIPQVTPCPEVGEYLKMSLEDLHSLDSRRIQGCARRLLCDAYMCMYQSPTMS

SPATA2 PUB (from UniProt Q9UM82)
Kd: 10 nM
